Publication PMC7378068

Biological target: T1, IL-1R1 (mouse IL-1R complex on HEK-Blue-IL1R cells) (mouse) (UniProt P13504)
T1 sequence: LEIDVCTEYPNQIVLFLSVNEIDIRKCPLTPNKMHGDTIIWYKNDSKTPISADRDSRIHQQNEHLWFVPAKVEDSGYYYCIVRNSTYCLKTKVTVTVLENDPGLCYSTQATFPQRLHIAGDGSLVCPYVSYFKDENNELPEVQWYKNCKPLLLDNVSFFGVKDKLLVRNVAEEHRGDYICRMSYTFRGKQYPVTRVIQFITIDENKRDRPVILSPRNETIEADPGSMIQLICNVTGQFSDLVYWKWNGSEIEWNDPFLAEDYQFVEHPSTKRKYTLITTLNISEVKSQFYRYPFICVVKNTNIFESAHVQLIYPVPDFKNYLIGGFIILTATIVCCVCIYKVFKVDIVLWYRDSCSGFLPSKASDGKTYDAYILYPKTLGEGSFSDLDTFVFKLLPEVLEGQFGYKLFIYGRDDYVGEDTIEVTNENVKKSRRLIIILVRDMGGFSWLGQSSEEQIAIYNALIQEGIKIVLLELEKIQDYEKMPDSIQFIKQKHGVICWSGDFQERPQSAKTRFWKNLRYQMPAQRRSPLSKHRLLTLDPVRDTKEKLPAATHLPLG

NF-κB-driven expression of a luciferase reporter in HEK-Blue-IL1R cells; fold reduction in activity compared with WT IL-1β: 168 fold
Substance: human IL-1β mutant Q148G (from UniProt P01584 117-269) (ligand)
